Measurements published in PMC12394075.

Target: HA-GSGS-tagged rat mGluR2 with TAG at Ala548 (CRD linker sensor) (rat) (UniProt P31421)

Chain of Heterotrimeric Gi1 (P63096 whole entry, looked up, one chain of several): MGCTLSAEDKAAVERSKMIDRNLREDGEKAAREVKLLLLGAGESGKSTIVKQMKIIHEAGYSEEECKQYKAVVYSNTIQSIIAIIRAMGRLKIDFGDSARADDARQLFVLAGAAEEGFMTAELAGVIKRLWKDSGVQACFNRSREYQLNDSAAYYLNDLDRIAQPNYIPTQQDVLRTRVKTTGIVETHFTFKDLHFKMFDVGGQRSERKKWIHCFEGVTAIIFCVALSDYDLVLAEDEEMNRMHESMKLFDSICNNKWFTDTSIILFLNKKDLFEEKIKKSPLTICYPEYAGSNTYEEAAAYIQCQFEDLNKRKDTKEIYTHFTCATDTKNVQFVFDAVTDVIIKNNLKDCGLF

smFRET of the CRD sensor with 10 mM glutamate and 4–5 µM Gi1 heterotrimer: occupancy of the high-FRET state (E ~ 0.85): 20%
Substance: Heterotrimeric Gi1 (from UniProt P63096 1-354) (complex)
